The source of these data is US20220267415A1.

This experiment deals with recombinant SARS-CoV-2 Receptor Binding Domain (RBD) with a his tag (ATUM, Cat. 65639.1.a) (SARS-CoV-2), P0DTC2. In words: ELISA on coated RBD-his. Particulars: remark: other sources report otherwise.

B1: anti-SARS-CoV2-09 IgG (antibody, V domains shown)
VH: QVQLHQWGAGLLKPSETLSRTCAVYGGSFSGYYWTWIRQAPGKGLEWIGEINHGGSTRYNPSLESRVSISVDTSKKQFSLELRSVTAADTAIYYCARGYDTNWYGDGYNWFDPWDRGTLVTVSS
VL: QSALTQDPSVSVALGQTVRITCQGDSLRGSFASWYRQKPGQAPVLVIFGINNRPSGVPDRFSGSSSGNTASLTITGAQAEDEADYYCNSRESNSNRILFGGGTKVTVL
With B1, the EC50 came to 2.3 nM.

B2: anti-SARS-CoV2-16 IgG (antibody, V domains shown)
VH: B1 VH
VL: QAVVTQPPSVSGTPGQRVTISCSGSSSSIGSNTVHWYQHLPGTAPKLLMYNNNERPSGVPARFSGSKSGTSASLVITGLQADDEAEYYCQSYDTGLSGHVFGSGTELTVL
As to B2, the EC50 stood at 4.2 nM.

One may read the EC50 as the concentration at which the effect is half-maximal.
